From US20040019926A1 (CROPDESIGN N V, published 2004)

B1: empty pBDGal4 vector (Gal4 binding domain alone) (other, UniProt P04386 1-148, looked up)
chain: MKLLSSIEQACDICRLKKLKCSKEKPKCAKCLKNNWECRYSPKTKRSPLTRAHLTEVESRLERLEQLFLLIFPREDLDMILKMDSLQDIKALLTGLFVQDNVNKDAVTDRLASVETDMPLTLRQHRISATSSSEESSNKGQRQLTVSI
notes: Negative control in the yeast two-hybrid assay
B2: empty prey pADGal4 vector (Gal4 activation domain alone) (other, UniProt P04386 761-881, looked up)
chain: PSALFGGANFNQSGNIADSSLSFTFTNSSNGPNLITTQTNSQALSQPIASSNVHDNFMNNEITASKIDDGNNSKPLSPGWTDQTAYNAFGITTGMFNTTTMDDVYNYLFDDEDTPPNPKKE
notes: as for B1

Columns and labels:
[1] = biological target: T1, full-length rice OsICK2 protein (Oryza sativa, UniProt A2X9W8 1-262); assay: yeast two-hybrid, OsICK2 in prey pADGal4 with empty pBDGal4
T1 construct: The Gal4 parts are not written into the chain; Form 'mature' here means the full-length protein; also called Os2
T1 sequence: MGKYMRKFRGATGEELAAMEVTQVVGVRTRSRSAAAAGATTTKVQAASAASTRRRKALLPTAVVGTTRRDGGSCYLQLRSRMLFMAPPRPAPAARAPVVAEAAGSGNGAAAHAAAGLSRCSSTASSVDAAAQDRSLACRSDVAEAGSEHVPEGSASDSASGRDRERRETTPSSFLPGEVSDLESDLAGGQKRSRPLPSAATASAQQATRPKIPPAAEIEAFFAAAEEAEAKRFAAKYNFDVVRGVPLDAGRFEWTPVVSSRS
Text: (§1) The interactions of OsICK2 and OsICK4 with Cdc2-Os1 and CycD3-Os (the rice cyclin D3) were verified using a yeast two hybrid approach. In a preliminary step, yeast strain PJ69-4A (MATa trp1-901 leu2-3,112 ura3-52 his3-200 gal4(deleted) gal80(deleted) LYS2::GAL1-HIS3 GAL2-ADE2 met2::GAL7-lacZ) was transformed with Cdc2-Os1 in bait vector pBDGal4 (Stratagene), using the lithium acetate method, well known to those skilled in the art. The rice Cdc2-Os1 was previously obtained by PCR as described in Example 1. The Cdc2-Os1 was also cloned in the pADGal4 prey vector. The junctions between the pBDGal4 binding domain and the pADGal4 activation domain and the Cdc2-Os1 fragment were sequenced to verify correct in-frame fusion.
(§2) Two putative positive clones were identified. A second round of screening on these clones was performed. Pure positive plaques were isolated and phagemids were excised therefrom. Sequencing of the two clones reveiled that the clones were identical with a full length size of 1.7 kb. The clones contain an ORF of 1140 bp encoding a protein of 380 amino acids. This protein is designated cyclin D3 from rice (CycD3-Os). […]
(§3) As positive controls, growth was assessed in yeast containing the prey vector pADGal4 with Cdc2-Os1 and retransformed with the bait vector pBDGal4 containing OsICK2 or CycD3-Os. […]

[2] = biological target: T2, rice cyclin-dependent kinase Cdc2-Os1 (rice, UniProt P29618 1-294); assay: yeast two-hybrid, Cdc2-Os1 in prey pADGal4 with empty pBDGal4
T2 construct: The Gal4 parts are not written into the chain
T2 sequence (P29618 whole entry, the tested form may be a part): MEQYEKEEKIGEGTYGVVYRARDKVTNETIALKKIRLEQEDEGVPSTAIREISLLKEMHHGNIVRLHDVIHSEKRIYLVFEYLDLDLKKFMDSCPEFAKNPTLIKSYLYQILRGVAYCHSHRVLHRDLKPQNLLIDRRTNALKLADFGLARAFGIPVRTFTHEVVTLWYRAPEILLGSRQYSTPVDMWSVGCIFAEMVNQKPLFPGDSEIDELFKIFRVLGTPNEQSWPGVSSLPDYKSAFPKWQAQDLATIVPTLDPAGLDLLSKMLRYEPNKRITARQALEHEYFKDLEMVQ
Text: as §1, §2, §3

[3] = biological target: T1, full-length rice OsICK2 protein; assay: yeast two-hybrid, OsICK2 in bait pBDGal4 with empty prey pADGal4
Text: as §1, §2, §3

[4] = biological target: T2, rice cyclin-dependent kinase Cdc2-Os1; assay: yeast two-hybrid, Cdc2-Os1 in bait pBDGal4 with empty prey pADGal4
Text: as §1, §2, §3

Row | Binder | binding result [1] | binding result [2] | binding result [3] | binding result [4]
1 | B1 | no binding | no binding | – | –
2 | B2 | – | – | no binding | no binding
